Reference: publication PMC2871789, “Characterization of the Interaction and Cross-Regulation of Three Mycobacterium tuberculosis RelBE Modules”

Assays:
RelJ = target: T1, RelJ (Mycobacterium tuberculosis H37Rv, UniProt P9WF25 1-91); assay: EMSA; 7.5 uM RelJ alone; conditions: protein: recombinant; tags: His or GST; chain copies: 2; label: 5'-32P; blunt
T1 sequence: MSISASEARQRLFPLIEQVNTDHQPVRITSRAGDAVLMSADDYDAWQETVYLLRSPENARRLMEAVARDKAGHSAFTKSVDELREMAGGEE

RelJ;RelK = RelJ;RelK (Mycobacterium tuberculosis …, UniProt P9WF25;P9WF09 1-91;1-85, |); assay: EMSA; 1.8-15 uM titration; conditions: protein: recombinant;recombinant; tags: His or GST;His or GST; label: 5'-32P; blunt
RelF;RelG = target: T2, RelF;RelG (Mycobacterium tuberculosis …, UniProt O33347;O33348 1-93;1-87, |); assay: EMSA; conditions: protein: recombinant;recombinant; tags: His or GST;His or GST; label: 5'-32P; blunt
T2 sequence 1: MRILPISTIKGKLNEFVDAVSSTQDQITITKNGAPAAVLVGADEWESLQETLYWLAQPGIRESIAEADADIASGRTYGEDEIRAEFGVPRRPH
T2 sequence 2: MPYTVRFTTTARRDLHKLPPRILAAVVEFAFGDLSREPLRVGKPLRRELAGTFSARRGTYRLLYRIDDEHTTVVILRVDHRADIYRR

RelB;RelE = target: T3, RelB;RelE (Mycobacterium tuberculosis …, UniProt O50462;O50461 1-89;1-97, |); assay: EMSA; 1.8-15 uM titration; conditions: protein: recombinant;recombinant; tags: His (modified pET28a);His or GST; chain copies: 2;2; label: 5'-32P; blunt
T3 sequence 1: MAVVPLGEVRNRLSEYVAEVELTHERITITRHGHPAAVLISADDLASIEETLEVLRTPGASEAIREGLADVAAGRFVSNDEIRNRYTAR
T3 sequence 2: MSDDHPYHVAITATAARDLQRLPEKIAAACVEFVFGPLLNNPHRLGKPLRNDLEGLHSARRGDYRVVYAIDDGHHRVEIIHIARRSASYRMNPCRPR

Sequence of RelJ;RelK (P9WF09 whole entry, one chain of several): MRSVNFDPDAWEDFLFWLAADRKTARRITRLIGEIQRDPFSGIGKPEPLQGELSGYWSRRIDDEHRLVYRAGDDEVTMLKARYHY

B1: 3357p7 (dsDNA)
DNA 1: CCACCGTACGGACAACTTGTACCATTGTGGTACAGATTATCCGTACATCTT
DNA 2: AAGATGTACGGATAATCTGTACCACAATGGTACAAGTTGTCCGTACGGTGG
B1: binds (RelJ); binds (RelJ;RelK).

B2: 2865p7 (dsDNA)
DNA 1: AAACCTGAGACGCCGCGCACAAAGTGCGAAACC
DNA 2: GGTTTCGCACTTTGTGCGCGGCGTCTCAGGTTT
B2: binds (RelF;RelG).

B3: 1247p7 (dsDNA)
DNA 1: GGCGTTCGGCTCGGTAAGCCGATGCTCGGCG
DNA 2: CGCCGAGCATCGGCTTACCGAGCCGAACGCC
B3: binds (RelB;RelE).
